In the Immune Epitope Database (IEDB):
pIC50, pKd: −log10 of the molar value.

Assays:
Details in all cases: source organism: Vaccinia virus WR
[1] = target: HLA-A*02:06; assay: IEDB peptide-MHC binding, purified MHC/competitive/radioactivity; filed as Kd, often an IC50 or EC50 that approximates it; ≥ and ≤ were set here for values at or beyond the usual limits of such assays
[2] = target: HLA-A*26:01; assay: as above
[3] = target: HLA-A*29:02; assay: as above
[4] = target: HLA-A*30:02; assay: as above
[5] = target: HLA-A*01:01; assay: IEDB peptide-MHC binding, purified MHC/competitive/radioactivity; ≥ and ≤ were set here for values at or beyond the usual limits of such assays
[6] = target: HLA-A*30:02; assay: as above
[7] = target: HLA-B*45:01; assay: IEDB peptide-MHC binding, purified MHC/competitive/radioactivity; filed as Kd, often an IC50 or EC50 that approximates it; ≥ and ≤ were set here for values at or beyond the usual limits of such assays
[8] = target: HLA-B*44:02; assay: as above
[9] = target: HLA-B*40:01; assay: as above
[10] = target: HLA-B*40:02; assay: as above
[11] = target: HLA-B*44:03; assay: as above
[12] = target: HLA-B*18:01; assay: IEDB peptide-MHC binding, purified MHC/competitive/radioactivity; ≥ and ≤ were set here for values at or beyond the usual limits of such assays
[13] = target: HLA-A*26:01; assay: as above
[14] = target: HLA-A*29:02; assay: as above
[15] = target: HLA-A*33:01; assay: IEDB peptide-MHC binding, purified MHC/competitive/radioactivity; filed as Kd, often an IC50 or EC50 that approximates it; ≥ and ≤ were set here for values at or beyond the usual limits of such assays
[16] = target: HLA-A*68:01; assay: IEDB peptide-MHC binding, purified MHC/competitive/radioactivity; ≥ and ≤ were set here for values at or beyond the usual limits of such assays
[17] = target: HLA-A*03:01; assay: as above
[18] = target: HLA-A*31:01; assay: as above
[19] = target: HLA-A*11:01; assay: as above
[20] = target: HLA-A*24:02; assay: as above
[21] = target: HLA-A*23:01; assay: as above
[22] = target: HLA-A*31:01; assay: IEDB peptide-MHC binding, purified MHC/competitive/radioactivity; filed as Kd, often an IC50 or EC50 that approximates it; ≥ and ≤ were set here for values at or beyond the usual limits of such assays
[23] = target: HLA-B*51:01; assay: as above
[24] = target: HLA-B*35:01; assay: as above
[25] = target: HLA-B*53:01; assay: as above
[26] = target: HLA-B*54:01; assay: IEDB peptide-MHC binding, purified MHC/competitive/radioactivity; ≥ and ≤ were set here for values at or beyond the usual limits of such assays
[27] = target: HLA-B*07:02; assay: as above
[28] = target: HLA-A*68:02; assay: as above
[29] = target: HLA-A*02:03; assay: as above
[30] = target: HLA-A*02:06; assay: as above
[31] = target: HLA-A*02:02; assay: as above
[32] = target: HLA-A*68:01; assay: IEDB peptide-MHC binding, purified MHC/competitive/radioactivity; filed as Kd, often an IC50 or EC50 that approximates it; ≥ and ≤ were set here for values at or beyond the usual limits of such assays
[33] = target: HLA-B*54:01; assay: as above
[34] = target: HLA-B*35:01; assay: IEDB peptide-MHC binding, purified MHC/competitive/radioactivity; ≥ and ≤ were set here for values at or beyond the usual limits of such assays
[35] = target: HLA-B*18:01; assay: IEDB peptide-MHC binding, purified MHC/competitive/radioactivity; filed as Kd, often an IC50 or EC50 that approximates it; ≥ and ≤ were set here for values at or beyond the usual limits of such assays
[36] = target: HLA-B*40:01; assay: IEDB peptide-MHC binding, purified MHC/competitive/radioactivity; ≥ and ≤ were set here for values at or beyond the usual limits of such assays
[37] = target: HLA-B*40:02; assay: as above
[38] = target: HLA-A*33:01; assay: as above
[39] = target: HLA-A*68:02; assay: IEDB peptide-MHC binding, purified MHC/competitive/radioactivity; filed as Kd, often an IC50 or EC50 that approximates it; ≥ and ≤ were set here for values at or beyond the usual limits of such assays
[40] = target: HLA-A*01:01; assay: as above
[41] = target: HLA-B*51:01; assay: IEDB peptide-MHC binding, purified MHC/competitive/radioactivity; ≥ and ≤ were set here for values at or beyond the usual limits of such assays
[42] = target: HLA-B*53:01; assay: as above

SMHFYGWSL
pKd [1]: 5.69

QSDTVFDYY
pKd [2]: ≤ 4.30
pKd [3]: ≤ 4.30
pKd [4]: 5.53
pIC50 [5]: 9.00

VTDTNKFDNY
pKd [2]: ≤ 4.30
pKd [3]: ≤ 4.30
pIC50 [5]: 8.80
pIC50 [6]: 6.59

DELVDPINY
pKd [7]: 4.91
pKd [8]: 4.84
pKd [9]: 6.28
pKd [10]: 4.88
pKd [11]: 5.57
pIC50 [12]: 7.80

FTIDFKLKY
pKd [4]: 5.98
pIC50 [13]: 7.68
pIC50 [14]: 8.85
pIC50 [5]: 7.22

IVFNLPVSK
pKd [15]: 5.50
pIC50 [16]: 8.27
pIC50 [17]: 8.66
pIC50 [18]: 7.64
pIC50 [19]: 8.34

RYRFAFLYLL
pKd [3]: 4.79
pIC50 [20]: 6.78
pIC50 [21]: 7.39

DMCDIYLLY
pIC50 [13]: 7.09
pIC50 [14]: 7.05
pIC50 [5]: 7.55
pIC50 [6]: 7.26

VTSSGAIYK
pKd [22]: 5.40
pKd [15]: ≤ 4.67
pIC50 [16]: 7.62
pIC50 [17]: 8.00
pIC50 [19]: 8.51

FLSMLNLTKY
pKd [2]: 5.11
pIC50 [14]: 6.81
pIC50 [5]: 6.57
pIC50 [6]: 6.30

RPMSLRSTII
pKd [23]: 5.02
pKd [24]: ≤ 4.34
pKd [25]: 5.91
pIC50 [26]: 6.58
pIC50 [27]: 9.37

FLNISWFYI
pIC50 [28]: 6.62
pIC50 [29]: 9.48
pIC50 [30]: 9.00
pIC50 [31]: 9.77

KVLHVTDTNK
pKd [32]: 5.52
pKd [15]: ≤ 4.30
pIC50 [17]: 8.09
pIC50 [18]: 6.33
pIC50 [19]: 8.00

HPRHYATVM
pKd [33]: 5.36
pKd [23]: 4.83
pKd [25]: 5.51
pIC50 [34]: 7.20
pIC50 [27]: 9.06

FLTSVINRV
pIC50 [28]: 9.38
pIC50 [29]: 8.85
pIC50 [30]: 8.32
pIC50 [31]: 9.96

AVFKDSFLRK
pKd [22]: 6.16
pKd [15]: ≤ 4.37
pIC50 [16]: 7.33
pIC50 [17]: 8.09
pIC50 [19]: 6.92

NQVKFYFNK
pKd [15]: 6.09
pIC50 [16]: 8.24
pIC50 [17]: 6.72
pIC50 [18]: 7.82
pIC50 [19]: 8.66

TEYDDHINL
pKd [7]: 5.11
pKd [8]: 6.04
pKd [11]: 5.92
pKd [35]: 6.19
pIC50 [36]: 8.12
pIC50 [37]: 6.97

YLLVKWYRK
pKd [32]: ≤ 4.30
pIC50 [17]: 8.25
pIC50 [18]: 7.35
pIC50 [38]: 6.94
pIC50 [19]: 8.44

KLKIISNDYK
pKd [32]: ≤ 4.30
pKd [15]: ≤ 4.30
pIC50 [17]: 8.35
pIC50 [18]: 6.86
pIC50 [19]: 6.33

GTIAGGVCYY
pKd [32]: 4.96
pKd [22]: 5.07
pKd [15]: ≤ 4.41
pIC50 [17]: 6.88
pIC50 [19]: 8.35

VSVNNVCHMY
pKd [2]: 5.37
pKd [3]: 5.97
pIC50 [5]: 6.89
pIC50 [6]: 8.43

FGDSKEPVPY
pKd [2]: 5.25
pKd [3]: 6.25
pKd [4]: 5.09
pIC50 [5]: 6.86

KPKPAVRFAI
pKd [33]: 6.17
pKd [23]: ≤ 4.30
pKd [24]: ≤ 4.44
pKd [25]: ≤ 4.69
pIC50 [27]: 9.74

KTKNFTIDFK
pKd [15]: ≤ 4.39
pIC50 [16]: 6.84
pIC50 [17]: 7.96
pIC50 [18]: 7.85
pIC50 [19]: 7.66

NLFDIPLLTV
pIC50 [28]: 8.09
pIC50 [29]: 9.60
pIC50 [30]: 8.82
pIC50 [31]: 10.00

KVMFVIRFK
pKd [15]: 6.07
pIC50 [16]: 7.52
pIC50 [17]: 8.85
pIC50 [18]: 8.31
pIC50 [19]: 8.14

ILDDNLYKV
pKd [39]: ≤ 4.32
pIC50 [29]: 7.21
pIC50 [30]: 8.05
pIC50 [31]: 8.35

GLNDYLHSV
pKd [39]: 5.57
pIC50 [29]: 8.85
pIC50 [30]: 8.41
pIC50 [31]: 9.13

QSITRSLIY
pKd [2]: 5.30
pIC50 [14]: 6.53
pIC50 [5]: 7.13
pIC50 [6]: 6.54

SQSDTVFDY
pKd [2]: 5.73
pKd [3]: 6.07
pKd [40]: 5.52
pIC50 [6]: 8.64

VWINNSWKF
pIC50 [14]: 8.31
pIC50 [20]: 8.19
pIC50 [21]: 8.28

MPAYIRNTL
pIC50 [26]: 8.47
pIC50 [41]: 6.34
pIC50 [34]: 7.72
pIC50 [42]: 7.31
pIC50 [27]: 9.28
